Laboratory results as given in the DeepSol protein solubility set.

Experiment: soluble on expression in E. coli; label from the status in PepcDB or PDB records

| Sequence | soluble on expression in E. coli |
| --- | --- |
| MTNPGDGAAGAADRATLDHWRPRLAAIAAAAGQDDAAHDLGHLRRVWDAARAMLQAHPEADALVVLAASYLHDLVNLPKNHPERHLASRQAAAAARERLARAGFPAARLDAVAHAIEAHSFSAGIAPRTIEARIVQDADRLDALGPVGLVRMFHVGGSLGRALAHPSDPLAAQRALDDSRYTLDHIEAKLARLPHGMQTEAGRRLGEQRLAWLRDFRAAFSAQWGGGQLRLEHHHHHH | not soluble |
| MAPATQRNRETIAAVLQEYLPSQGSILEIASGTGEHACFFAPLFSPRWWITSDPDPLCRESIMAWRDHQALANFQSPLDLDVNDQVWPVEREILREPVTSIVAINLIHISPWESCLGLLTGAERILPEGGILYLYGPYRQKGVPTAPSNEAFDQSLQSRNPAWGLRQLEDVIGEAGKRNLHNQAIIPMPANNLSVIFQKGLEHHHHHH | soluble |
| MNRREVRCAFSASKAARAQLLLRGKVRLEPLPTRPRTVLGLDASYSAKDGVGVGAAVLISLETLEPVDCRVYISRVCIPYIPGLLAFRELAVMAPAAAALSAEADVVMVDGHGIAHPRRFGIASHVGVILERPSIGVAKKKLVGTLVEGPGGMYVVQDGERLAIVLGTRPREVYVSPGHRITLEEAASIARATIRPGGWMPEPTRLADVISKALKTIIGGQSLINSALASLCRVKLGPRLEELERPLRRAGLEVELEHHHHHH | not soluble |
| MKVDKETIEYVANLARLRLSEKEKEKLALDLESIISYVDKLNELDTSKIIPTDHVIPIKNVFRDDEVRDSYPKDKMLMNAPEKEDGCFKVPKVVE | soluble |
| GMTGHIDPTKEVFAQFRANDREGPIHMLNLVRLRPRAAYPDGRETTGAEAYAAYGRDSGPVSERLGGKVVWQGQFELMLIGPQDEHWDHVFIAEYPSVAAFVEMIRDPVYREAVKHRQAAVEDSRLIRLKPLKPGKGFGEIPT | soluble |
| MSLATIKDVAQRAGLSISTVSRYLNHHPYISEDKKIKIQQAMDELDYVPNLVAMQLRSNKSYTIGIIVPRITNPYFAYLIDAIDKKIKGTPYHTLIMQTYNDKEEELRLLNMFKQRQIAGVIMGALENDIEVLETYTKYGPIILSADQSMQSDKVKIIHTTQRQTTYDAIQYLINKGYRNIAYCTDNNYYDHCFNKPRNVGFRVAMKDNGLDIRNEWIFNNVHTIEDGEQIGKILLRQEQLPDAIFTGSDEVALGLMHFMTAHQIDIPNQIAIMGYDNQPISSLLKIPLSTVNQPVNDIGMQLINYLLALLEETEFEINDNVLKLNIVERQSTEGHHHHHH | soluble |
| MPSSKTSARRAPSSPGASLWSLPLIRKLCCAPGCEELAPAGQAHCADHAAEAEARARSRKARAKAGAAAQAGAAFYATGRWRRARARFLAAHPLCADCAGLGLVVAAAEVDHIRPHRGDPGLMWDRANWQPLCRPCHSRKTAREVFHPPGGIAKSEGSARLEHHHHHH | not soluble |
| TYAFQRRRFWETPGADGPADAAGLGLGATEHALLGAVVERPDSDEVVLTGRLSLADQPWLADHVVNGVVLFPGAGFVELVIRAGDEVGCALIEELVLAAPLVMHPGVGVQVQVVVGAADESGHRAVSVYSRGDQSQGWLLNAEGMLGVAAAETPMDLSV | soluble |
| MAHRKTTTKNGNGGTLGFEAELFKAADKLRGNMEPSDYKHVALGLIFLKYISDAFEAKHSALLAEDAQAAEDKDEYLAHNVFWVPKQARWSHLKANAKQSTIGTLIDEAMRDIEKDNPSLKHVLPKDYARPALNKVMLGELIDLISGIALNEEGARSKDILGRVYEYFLGQFAGAEGKRGGEFYTPRSVVRVLVQMLEPYSGRVYDPCCGSGGMFVQSEKFVLEHGGRIGDIAIYGQESNYTTWRLAKMNLAVRGIDSDIRWNNEGSFHNDALRDLKADYILANPPFNISDWGGDRLREDVRWKFGVPPAGNANYAWLQHIYHHLAPNGTAGVVLANGSMSSNHSGEGEIRTHMIEADIVDCMIAMPGQLFYSTQIPACLWFLARNKNPGKGLRDRRGQVLLMDARALGVLVDRTRRELTDEHIQQIADTYHAWRGEQGAAAYADVAGFCKSATLEDIRKQGYVLTPGRYVGAVEREDDGEPFPQKMQRLSAQWRAQRAAAAKLDAAIAANLKELGYGG | soluble |
| VAHFTFQPDPEPREYGQTQKMNLFQSVTSALDNSLAKDPTAVIFGEDVAFGGVFRCTVGLRDKYGKDRVFNTPLCEQGIVGFGIGIAVTGATAIAEIQFADYIFPAFDQIVNEAAKYRYRSGDLFNCGSLTIRSPWGCVGHGALYHSQSPEAFFAHCPGIKVVIPRSPFQAKGLLLSCIEDKNPCIFFEPKILYRAAAEEVPIEPYNIPLSQAEVIQEGSDVTLVAWGTQVHVIREVASMAKEKLGVSCEVIDLRTIIPWDVDTICKSVIKTGRLLISHEAPLTGGFASEISSTVQEECFLNLEAPISRVCGYDTPFPHIFEPFYIPDKWKCYDALRKMINYGGHHHHHH | soluble |
| MSLSILNSLKNIAFIGFYFIFAVNKMSRADEGRLIHLAKKREREKEDIEQQLRKLEEDKEKCRVGITNKFMANYETVEEVVKSKTYGLVSLDDMKNIQKNEISNRDLQVARGDQSSSTQSKDSQEAREKEEHVAKHTQKRFLSFAFDDEEDEEDAAPIIPKKRVGMDPTVDTSFLPDKEREEFLRKKKESLAAEWRVKQDAEKNEEITVAYAYWDGSSHRKNMKIKKGNTISQCLGRAIEALKKEFTELKSCTAENLMFVKEDLIIPHFYTFQDFIVTKAMGKTGPLFVFDSASDVRIRQDAALDYGESHPAKIVLRSWYEKNKHIYPASRWEPFVPSKKYGRNFDDLSDL | not soluble |
| MRKCRCLKLRNVKLINIRRIAVMMRSSKMASERSTDVQAFIGELDGGVFETKIGAVLSEVASGVMNTKTKGKVSLNLEIEPFDENRLKIKHKLSYVRPTNRGKISEEDTTETPMYVNRGGRLTILQEDQGQLLTLAGEPDGKLRAAGHMAGDPLEHHHHHH | soluble |
| MGSDKIHHHHHHMNRMAGCINDHLKRYGGLAAGREDEQKRYFAEKRLYALQIETTDACQQGCIFCYAGSTPREHHGLTSDEIRGLLRDAAALEIRAIDWLGGDPLVRPDWYELMQYARSLGLVNNVWTSGLPLKSKEVAARVHEVSEGGFVSVHVDSITPEVYAKLHRGGNPHFIEAIVEGVDNLLALGKPADMMINCITYTSLQGPEDAIKTMRWWFCEKGLRTCLTMFNPAGMGAEWRSLEPQLDEVQRVYTERDRIDYGGDNISIAAMDTDKYYCGTMATVTFTGDVTPCSVIREGVANIRTTPFRDIVARHLDTLVHAALHDVQNLPNPCNDCVNNAHCWGCRASAYHYSGDADGLDPKCWLIRTALTSDSFSVNNNLQKSTDEEIGLKP | not soluble |
| MASIAVCPGSFDPVTYGHLDIIKRGAHIFEQVYVCVLNNSSKKPLFSVEERCELLREVTKDIPNITVETSQGLLIDYARRKNAKAILRGLRAVSDFEYEMQGTSVNRVLDESIETFFMMANNQYSFLSSSIVKEVARYDGSVSEFVPPEVELALQQKFRQGGSHHHHHH | soluble |
| MLAKRIIPCLDVDKGRVVKGVKFLNLRDAGDPVEVAKRYEEEGADELVFLDITASAEDREIMIDVVKKVAETVFMPFTVGGGIRSLEDMRRLLEAGADKISINTAAVKNPNLIYEGAKRFGSQCIVVAIDAKRKGNSWEVYIHGGRTPTGLDAVEWAKKVESLGAGEILLTSMDRDGTKDGYDIELNRAISEAVNIPVIASGGAGKKEHFYEVFSKTKVEAALAASVFHFREISIPELKEYLLERGINVRPLD | soluble |
| MGSDKIHHHHHHMALLEVKNLKKYFPIIKRGFRRKVVGYLKAVDGISFHIEEGETLGLVGESGCGKTTTAKLIMRGIEPTEGEIVLNMDGEKVDITKLSEKELREKGVRRFLQMIFQDPYSSLNPRMTVRDIIAEPLVVNGVIKGKEEIDAIVSDLLRAVGLRPEYMQRYPHAFSGGQRQRIAIARAIALKPKLVLCDEPTSALDVSVQAQIINLLKDLQKEYNLTYLFISHDLGVVEHITNRVAVMYVGRIVELAETEELFSSPKHPYTEALLSAVPKPDPKRKRKKAQLTGEVPDPSNPPSGCYFHPRCPYAKAICKEVYPDLRNVGTDQNPHLVACHFADSLKLEGVGTM | not soluble |
| MSLTRRATSLLPPNATALERRLADTNARISDIPVDIGALMDPDAIPLRFLPWLAWHLGVETWKDYWPEQVKRARVKAAIRIARKKGTAAAVREVCASFGANVAMREWFEKTPKGRPGTFEILMTVGARDGIPATAEYVADIIAEVDRAKRGTAHYTFTQGFGATGTQRIGAGARVAVYRRLSLTDIEGHHHHHH | not soluble |
| MAHHHHHHMPGPGLLPDGWFREESTMWPGQAQGLKVEKVLYDQPTEFQHLTVFESDPSGPWGTVMTLDGAIQLTDYDEFVYHEMLANLSLACHHKPERVLVIGGGDGGVVREVLRHKSEKDGVVQSVELVDIDGAVMQQSKKHFPQVACGFANPCVTATVGDGAAFVRNVPDSVYDVIIIDTTDPKGPASELFGADFYTNVLRILRPGGVVCNQGESVWLHRPLIEKMMGFLKKDIGFATVKYAMIYIPTYPCGSIGTLVCAKSADTDVTVPMRPVESLGFADQLKYYSSDMHKAAFVLPRFAAHLNE | soluble |
| SSLCERAASGSALLWPRVLLFGDSITQFSFQQGGWGSLLADRLVRKCDVLNRGFSGYNTRWAKIILPRLIRKGPGMENPVAVTIFFGANDSSLKDENPKQHVPLDEYSANLRDMVQYLRSVDVPRERVILITPPPLCEAAWEKECVLKGCKLNRLNSVVGEYANACLQVARDCGTDVLDLWTLMQKDSQDFSSYLSDGLHLSPMGNEFLFLNLCPLLDKKVSSLPWLLPYWKDVEEAKPELSLLGDGDY | soluble |
| MSLQLSNFLELERADTFENVERVQNAVATEQSYLDYIVQDWACWDDTYQFIEDKNPEYIRVDLQNQTLSGINVNVMIFVNNSGKVVYVKSVNTSTAEEAPVPRKLLAMIEDGGLLTEGENDSISGFVLLDEDPMFIACHPILTTKYEGPSRGTLIFGRYFDDALLESFKKVTRSSLLMYRADEEMPQDFQNKIKNFSQNSDNIVVDPLNKNQIAGYFGLKDIKGDIALILRADFPREGHHHHHH | soluble |
| MGYKELLLECQKLLNEGDFEGMIKKLEELSKMEPSSKEEAEESLKLLDFLIEEVKKRQEEIFNKMVNYQKFKNYLR | not soluble |
| MGSDKIHHHHHHMITVRDLSWQYEPLVDGGKPVDSLKHVSFDIKSGSFVGVIGPTGAGKSTLCMALAGIIPNLADGTMTGLVEVNGMNTSRHSVSALSERIGYVQQDPEAQLFCASVEDEIAFPLENRGIAPDIIDKQIDVMLDLVGMTGYRKRVPASLSGGQMQRVAIAAALAAEPDVLILDEPTAALDPEGKQEVFDVLERIRQTRSMTVIMAEQDTEHIAYWADQVLFMVNGELVRNGDASLFVREKGLLESSGVQVADDPLPQVKAVQQGKKHKKDKKNQPERSKDVVISLDHVSYQYERGGNASKALDDVTFDIERGSFIGLIGRNGSGKTTLAKHLNGLIRPTQGTVTVDGLDASKHSVGEMAAHVGFVFQNPDHQIFCSTTKEEIAFGPTALGLDGATVFKRVDEMLTLFDLHRYEDVSPATLGYGERRAVALSSVLAMRTPILVLDEPTAGLDHRLAARFLGTIEKLNQRGVTIVMISHDMRAVYRYCTHVLELEDGKVVQYGPIDRSEAAQKQSRTIRKPRKSNGPVSATHVLLKVTKHEEGRH | not soluble |
| MGSVSKANVPKIDVSPLFGDDQAAKMRVAQQIDAASRDTGFFYAVNHGINVQRLSQKTKEFHMSITPEEKWDLAIRAYNKEHQDQVRAGYYLSIPGKKAVESFCYLNPNFTPDHPRIQAKTPTHEVNVWPDETKHPGFQDFAEQYYWDVFGLSSALLKGYALALGKEENFFARHFKPDDTLASVVLIRYPYLDPYPEAAIKTAADGTKLSFEWHEDVSLITVLYQSNVQNLQVETAAGYQDIEADDTGYLINCGSYMAHLTNNYYKAPIHRVKWVNAERQSLPFFVNLGYDSVIDPFDPREPNGKSDREPLSYGDYLQNGLVSLINKNGQT | soluble |
